Tests used:
[1] = molecular target: T1, mature evolved transglutaminase (SEQ ID NO: 5) (Streptomyces mobaraensis, UniProt P81453, G359A/K167H/K227R/K228R/N358M/Q126S/Q150A/Q200L); experiment: transglutaminase thermostability: activity after being held at 37-50 °C; format: biochemical; design: key: The symbol, —, represents not determined, neutral, or reduced performance; conditions: relative to wild-type pro-peptide; held at 37° C.-50° C. for 30 minutes, diluted 10-fold to 100-fold
T1 construct: hexa-His tag with two amino acid linker (C); made in house; host or cells: E. coli BL21 (DE3)
T1 sequence (P81453 other isoform, or with tags, fused parts or gaps Q126S/Q150A/K167H/Q200L/K227R/K228R/N358M/G359A): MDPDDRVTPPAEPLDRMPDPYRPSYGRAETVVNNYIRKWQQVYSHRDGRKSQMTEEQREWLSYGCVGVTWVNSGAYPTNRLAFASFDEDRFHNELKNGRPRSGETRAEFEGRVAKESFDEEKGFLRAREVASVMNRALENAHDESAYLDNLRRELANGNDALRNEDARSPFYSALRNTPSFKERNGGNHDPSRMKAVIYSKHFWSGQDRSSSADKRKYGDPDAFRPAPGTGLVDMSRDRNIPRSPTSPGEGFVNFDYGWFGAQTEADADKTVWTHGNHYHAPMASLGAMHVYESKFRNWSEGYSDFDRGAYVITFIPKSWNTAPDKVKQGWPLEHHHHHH
Description: The terms “stability” and “thermostability” are used interchangeably to refer to increased residual activity of mature transglutaminase after incubation at elevated temperatures. In some embodiments, a pro-peptide variant increases the stability of a mature transglutaminase compared to the wild type pro-peptide. Measurement of stability is depicted in Example 4.
It is believed that these pro-peptide variants confer thermal stability to mature transglutaminase.

[2] = molecular target: T1, mature evolved transglutaminase (SEQ ID NO: 5); experiment: casein assay, inhibition by pro-peptide variants (Method B, activated zymogen); format: biochemical; design: key: The symbol, —, represents not determined, neutral, or reduced performance; conditions: relative to wild-type pro-peptide, diluted approximately 20-fold into casein assay solution
From the text: Method B. The gene coding for a Pro-transglutaminase (i.e., zymogen form of transglutaminase) variant with the wild-type pro-domain (SEQ ID NO: 2) and an evolved mature domain including a C-terminal His tag (SEQ ID NO: 5), and was cloned into a pET vector operatively linked to the T7 promoter. The expression vector also contains the pMB1 origin of replication and a kanamycin resistance gene. The resulting plasmid was transformed first into E. coli DH-10B, using standard methods known in the art. […]
(§1) A secondary screen was performed to determine initial rate of transglutaminase in the presence of the pro-peptide variants using transglutaminase-catalyzed labeling of casein with dansylcadaverine (e.g., a commercially available kit such as the Transglutaminase Fluorogenic Activity Assay Kit, T036, Zedira, Germany). Transglutaminase activity was monitored by measuring the fluorescence (excitation wavelength 332 nm; emission wavelength 500 nm) using a BioTek Synergy H1 microplate reader. Transglutaminase-catalyzed covalent coupling (crosslinking) of monodansylcadaverine with N,N-dimethylcasein produces a product that causes a shift in intensity and wavelength of fluorescence of the dansyl group now linked to the casein. The relative transglutaminase activity is shown by increase of fluorescence intensity over time. […]

[3] = molecular target: evolved variant of mature Streptomyces mobaraensis transglutaminase, including a two amino acid linker and hexa-his tag (Streptomyces mobaraensis) (UniProt P81453); experiment: cell-based or functional assay
[4] = molecular target: T2, thermostable mature transglutaminase variant (SEQ ID NO: 3) (Streptomyces mobaraensis, UniProt P81453); experiment: pH-responsiveness screen: casein/dansylcadaverine assay at pH 6.0 and pH 8.0 in the presence of pro-peptide variants (Method A); format: biochemical; conditions: casein assay
T2 construct: made in house; host or cells: E. coli (lysate)
From the text: (§2) Method A. A bicistronic expression vector encoding the wild-type pro-domain of transglutaminase (SEQ ID NO: 2) and a thermostable mature transglutaminase variant (SEQ ID NO: 3) as separate polypeptides was cloned as described in PCT/US20/49226 (WO2021/178001 A1). The vector was used as a template for synthesis of a random mutagenesis library targeting the pro-domain coding sequence to create pro-domain peptide variants.
Method A. Plasmid libraries containing mature transglutaminase and variant pro-domain peptides were plated on Luria-Bertani (LB) agar plates containing 50 μg/mL of kanamycin. […]
as §1, with “casein.” for “casein. The relative transglutaminase activity is shown by increase of fluorescence intensity over time.”

[5] = molecular target: T2, thermostable mature transglutaminase variant (SEQ ID NO: 3); format: biochemical; conditions: casein assay; Method A
From the text: as §2
Method A. Plasmid libraries containing mature transglutaminase and variant pro-domain peptides were plated on Luria-Bertani (LB) agar plates containing 50 μg/mL of kanamycin. After incubation for at least 16 hours at 37° C., colonies were picked and inoculated into 1 mL of LB broth with 50 μg/mL kanamycin in one well of a 96 deep well culture plate. The plate was covered with a breathable seal and incubated overnight at 37° C. with 400 rpm of shaking. 10 μL of the seed culture was used to inoculate 1 mL of media in a 96 deep well culture plate for expression. The expression plate was allowed to grow for 6-8 hours at 30° C. Expression was then induced by adding isopropyl beta-D-1-thiogalactopyranoside (IPTG) to a final concentration of 1 mM and the temperature was reduced to 20° C. while growth continued for an additional 15 hours. Cells were harvested by centrifugation at 4000 rcf for 30 minutes and pellets were frozen at −80° C.
as §1, with “time. The data were normalized for transglutaminase expression levels in E. coli lysate as described above. Pro-domain variants were identified based on their ability to alter the activity of the mature transglutaminase enzyme.” for “time.”
It is believed that these pro-peptide variants have reduced binding affinity with mature mTgase.

[6] = tested on: E. coli ATCC 8739; experiment: MIC determination of bacterial cultures (OD600); format: cell-based; conditions: E. coli ATCC 8739, Mueller Hinton broth
Description: E. coli ATCC 8739 and C. albicans ATCC 10231 were acquired from the American Type Culture Collection (ATCC) (Manassas, VA) and maintained as −80° C. frozen glycerol stocks.
For Minimum Inhibitor Concentration (MIC) determination of bacterial cultures, E. coli ATCC 8739 was grown overnight (16-18 hours) in Mueller Hinton broth at 37° C. The following day, the cell density of the saturated cultures was calculated using OD600 and cultures were diluted to 10^4 to 10^6 CFU/mL in sterile Mueller Hinton broth to generate the inoculum, and 100 μL of the inoculum was combined with 100 μL of serially diluted transglutaminase variant at a range of 0.0001-0.05 weight percent. Growth curves were measured by OD600 on a BioTek® Synergy Plate Reader. All test conditions were performed in triplicate. MIC was determined to be 50 ppm (0.005% w/v) against E. coli for the enzyme described in SEQ ID NO: 5 using OD600.

“D2I, E2S, D21T: combination variant of pro-peptide SEQ ID NO: 2, Method B; E2S probably E7S (MINGAGSETKSYAETYRLTATDVANINALNESAPAASSAGPSFRAP)” was tested, and the Thermostability [1] was “—” and the Inhibition [2] was >2 fold.

With “D21T: substitution variant of pro-peptide SEQ ID NO: 2 (MDNGAGEETKSYAETYRLTATDVANINALNESAPAASSAGPSFRAP) [Variant D21T]” the Inhibition [2] was “—”.

“pro-peptide variant D2I, E2S, D21T (Method B)” was tested, and the Inhibition [3] was > 2 fold.

B1: SEQ ID NO: 4 (protein)
chain: MDNGAGEETKSYAETYRLTADDVLNINAETYRLTADDVRNINALNESAPAASSAGPSFRAP
For B1, the “activity at pH 6.0 relative to pH 8.0 compared to the wild-type pro-peptide” value [4] was “increase in activity at pH 6.0 relative to pH 8.0 compared to the wild-type pro-peptide” and the “transglutaminase activity relative to the wild-type pro-peptide” value [5] was “decrease in transglutaminase activity relative to the wild-type pro-peptide”.

B2: SEQ ID NO: 3: thermostable variant of Streptomyces mobaraensis transglutaminase (protein)
chain: MDPDDRVTPPAEPLDRMPDPYRPSYGRAETVVNNYIRKWQQVYSHRDGRKQQMTEEQREWLSYGCVGVTWVNSGQYPTNRLAFASFDEDRFKNELKNGRPRSGETRAEFEGRVAKESFDEEKGFQRAREVASVMNRALENAHDESAYLDNLKKELANGNDALRNEDARSPFYSALRNTPSFKERNGGNHDPSRMKAVIYSKHFWSGQDRSSSADKRKYGDPDAFRPAPGTGLVDMSRDRNIPRSPTSPGEGFVNFDYGWFGAQTEADADKTVWTHGNHYHAPNGSLGAMHVYESKFRNWSEGYSDFDRGAYVITFIPKSWNTAPDKVKQGWP
With B2 the MIC [6] was “outside the range of detection”.

— patent US20250304927A1, “PRO-PEPTIDE VARIANTS FOR MODULATING ACTIVITY OF TRANSGLUTAMINASES” (CURIE CO. INC., priority 2022, published 2025)
